Here are results for 1 substance from patent publication EP0797662B1.

The target in the test is extracellular domain of the aFGF receptor (sFGFR). Description: ITC, aFGF and the extracellular domain of its receptor.

Sequence of aFGF (P05230 16-155): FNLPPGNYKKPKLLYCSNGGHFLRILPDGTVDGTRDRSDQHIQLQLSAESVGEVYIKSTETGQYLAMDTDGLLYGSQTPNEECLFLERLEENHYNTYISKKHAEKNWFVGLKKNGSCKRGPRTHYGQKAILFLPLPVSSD

On to aFGF, for which the Kd stood at 500 nM.
